{"source": "patent US20090098568A1", "target": "cyclophilin A, N-terminally His- and FLAG-tagged fusion protein (UniProt P62937)", "sequence (P62937 other isoform, or with tags, fused parts or gaps limits assumed)": "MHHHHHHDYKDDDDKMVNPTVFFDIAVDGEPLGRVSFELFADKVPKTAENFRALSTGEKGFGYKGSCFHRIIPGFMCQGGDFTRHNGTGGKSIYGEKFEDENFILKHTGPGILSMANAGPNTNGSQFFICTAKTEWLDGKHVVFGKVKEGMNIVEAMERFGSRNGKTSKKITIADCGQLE", "test": "SPR (Biacore S51); 1 uM cyclosporin A injected for 1.5 minutes over Cyph immobilized (approx. 3,400 RU) on an NTA sensor chip", "data": [{"substance": "Cyclosporin A (peptide)", "values": [{"measurement": "response (RU)", "value": 43, "unit": "RU"}]}]}
